Test results from US20220073608A1.

Key:
[1] = target: monkey SEMA4D, full length, on CHO-K1 cells (CHO-K1 cSEMA4D) (monkey); assay: FACS, CHO-K1 cSEMA4D cells; Ab 0.00427 nM
[2] = target: T1, biotinylated hSEMA4D ECD-His (human) (UniProt Q92854); assay: FACS, blocking of biotinylated hSEMA4D ECD-His binding to 293F hPlexin B1 cells; Ab 0.107 nM
T1 sequence (chain, biotinylated with Biotin-X-X-NHS at a molar ratio of 8,1; sites not stated): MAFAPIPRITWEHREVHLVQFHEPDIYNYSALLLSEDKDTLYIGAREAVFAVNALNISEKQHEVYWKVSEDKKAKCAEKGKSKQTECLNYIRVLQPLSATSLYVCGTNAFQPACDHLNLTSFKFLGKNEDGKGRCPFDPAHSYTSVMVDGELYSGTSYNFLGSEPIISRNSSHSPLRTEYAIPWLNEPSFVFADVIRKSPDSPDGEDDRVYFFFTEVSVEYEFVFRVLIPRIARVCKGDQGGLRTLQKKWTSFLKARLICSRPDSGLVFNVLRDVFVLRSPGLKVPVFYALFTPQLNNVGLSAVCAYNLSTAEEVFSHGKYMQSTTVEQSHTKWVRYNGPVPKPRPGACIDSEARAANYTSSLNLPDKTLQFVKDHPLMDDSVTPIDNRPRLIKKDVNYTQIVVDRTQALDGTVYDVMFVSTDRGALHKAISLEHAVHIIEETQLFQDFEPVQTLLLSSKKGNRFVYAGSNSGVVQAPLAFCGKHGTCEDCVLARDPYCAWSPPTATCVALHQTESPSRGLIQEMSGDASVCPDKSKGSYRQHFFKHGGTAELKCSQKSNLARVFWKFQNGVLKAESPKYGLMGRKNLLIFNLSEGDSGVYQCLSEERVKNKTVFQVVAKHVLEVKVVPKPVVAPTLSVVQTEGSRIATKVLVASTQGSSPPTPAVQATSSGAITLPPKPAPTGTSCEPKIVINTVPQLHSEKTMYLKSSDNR

[3] = target: mouse SEMA4D, full length, on CHO-K1 cells (CHO-K1 mSEMA4D) (mouse) (UniProt O09126); assay: FACS, CHO-K1 mSEMA4D cells; Ab 2.67 nM
[4] = target: T1, biotinylated hSEMA4D ECD-His (human); assay: FACS, blocking of biotinylated hSEMA4D ECD-His binding to 293F hPlexin B1 cells; Ab 333 nM
[5] = target: T2, human SEMA4D, full length, on CHO-K1 cells (CHO-K1 hSEMA4D) (human) (UniProt Q92854); assay: FACS, CHO-K1 hSEMA4D cells; Ab 13.3 nM
T2 sequence (looked up): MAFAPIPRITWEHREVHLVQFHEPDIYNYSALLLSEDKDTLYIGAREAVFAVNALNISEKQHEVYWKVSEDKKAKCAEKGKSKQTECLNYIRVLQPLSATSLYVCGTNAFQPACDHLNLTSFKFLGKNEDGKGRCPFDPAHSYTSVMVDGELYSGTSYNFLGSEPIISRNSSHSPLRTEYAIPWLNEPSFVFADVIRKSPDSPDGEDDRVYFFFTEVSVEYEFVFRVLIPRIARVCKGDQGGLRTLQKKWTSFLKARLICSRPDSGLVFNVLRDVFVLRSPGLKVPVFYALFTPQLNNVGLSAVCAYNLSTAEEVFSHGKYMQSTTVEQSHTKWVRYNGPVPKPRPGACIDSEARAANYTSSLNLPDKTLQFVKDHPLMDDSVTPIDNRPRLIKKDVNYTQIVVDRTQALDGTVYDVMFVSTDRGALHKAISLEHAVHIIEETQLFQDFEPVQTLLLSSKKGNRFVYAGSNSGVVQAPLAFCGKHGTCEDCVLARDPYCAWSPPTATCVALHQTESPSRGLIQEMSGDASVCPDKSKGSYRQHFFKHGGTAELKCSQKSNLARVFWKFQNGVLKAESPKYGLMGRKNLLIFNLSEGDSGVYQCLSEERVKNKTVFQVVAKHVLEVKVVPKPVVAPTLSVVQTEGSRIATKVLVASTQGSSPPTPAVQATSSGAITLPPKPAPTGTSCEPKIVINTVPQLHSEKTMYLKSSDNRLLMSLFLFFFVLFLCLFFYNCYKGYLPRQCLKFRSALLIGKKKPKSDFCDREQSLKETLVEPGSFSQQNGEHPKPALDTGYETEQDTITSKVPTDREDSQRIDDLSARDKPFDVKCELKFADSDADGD

[6] = target: T2, human SEMA4D, full length, on CHO-K1 cells (CHO-K1 hSEMA4D) (human); assay: FACS, CHO-K1 hSEMA4D cells; Ab 0.00427 nM
[7] = target: T2, human SEMA4D, full length, on CHO-K1 cells (CHO-K1 hSEMA4D) (human); assay: FACS, CHO-K1 hSEMA4D cells; Ab 2.67 nM
[8] = target: mouse SEMA4D, full length, on CHO-K1 cells (CHO-K1 mSEMA4D) (mouse) (UniProt O09126); assay: FACS, CHO-K1 mSEMA4D cells; Ab 0.534 nM
[9] = target: T1, biotinylated hSEMA4D ECD-His (human); assay: FACS, blocking of biotinylated hSEMA4D ECD-His binding to 293F hPlexin B1 cells; Ab 0.0213 nM
[10] = target: T2, human SEMA4D, full length, on CHO-K1 cells (CHO-K1 hSEMA4D) (human); assay: FACS, CHO-K1 hSEMA4D cells; Ab 0.000853 nM
[11] = target: mouse SEMA4D, full length, on CHO-K1 cells (CHO-K1 mSEMA4D) (mouse) (UniProt O09126); assay: FACS, CHO-K1 mSEMA4D cells; Ab 0.0213 nM
[12] = target: mouse SEMA4D, full length, on CHO-K1 cells (CHO-K1 mSEMA4D) (mouse) (UniProt O09126); assay: FACS, CHO-K1 mSEMA4D cells; Ab 0.00427 nM
[13] = target: T2, human SEMA4D, full length, on CHO-K1 cells (CHO-K1 hSEMA4D) (human); assay: FACS, CHO-K1 hSEMA4D cells; Ab 66.7 nM
[14] = target: mouse SEMA4D, full length, on CHO-K1 cells (CHO-K1 mSEMA4D) (mouse) (UniProt O09126); assay: FACS, CHO-K1 mSEMA4D cells; Ab 13.3 nM
[15] = target: monkey SEMA4D, full length, on CHO-K1 cells (CHO-K1 cSEMA4D) (monkey); assay: FACS, CHO-K1 cSEMA4D cells; Ab 2.67 nM

MFI [1] | MFI (residual ligand binding) [2] | MFI [3] | MFI (residual ligand binding) [4] | MFI [5] | MFI [6] | MFI [7] | MFI [8] | MFI (residual ligand binding) [9] | MFI [10] | MFI [11] | MFI [12] | MFI [13] | MFI [14] | MFI [15] | Substance
22.5 | 473 | 30.4 | 464 | 40.2 | 35.5 | 35.6 | 29.5 | 468 | 35.5 | 30.5 | 30.1 | 214 | 30.3 | 37.8 | Mouse IgG control (antibody)
31.6 | 364 | 23.9 | 307 | 35.8 | 37.4 | 35.9 | 23.7 | 359 | 37.2 | 24.1 | 23.7 |  | 23.8 | 33.3 | Human IgG control (antibody)
